Experimental findings from patent US20230279491A1, “TREATMENTS FOR A SUB-POPULATION OF INFLAMMATORY BOWEL DISEASE PATIENTS” (CEDARS-SINAI MEDICAL CENTER, priority 2020, published 2023) are described below.

In the experiment the test system is T-cells. Briefly: TL1A treatment of T-cells (IL12+IL18, TL1A+IL12+IL18, untreated): miR-155, INFG and IL22 expression. Format: cell-based. From the text: T-cells were divided into 3 treatment groups: cells treated with IL12+IL18, cells treated with TL1A+IL12+IL18, and untreated cells (ut), as depicted in FIG. 13A.
Setting [1] is: TL1A+IL12+IL18 compared to no treatment or only IL12 and L18 treatment.
[2] abbreviates: treatment with TL1A (TL1A+IL12+IL18).

B1: TL1A: TNF Superfamily Member 15 (TL1A), cytokine encoded by TNFSF15, used to treat T-cells (protein)
chain: MAEDLGLSFGETASVEMLPEHGSCRPKARSSSARWALTCCLVLLPFLAGLTTYLLVSQLRAQGEACVQFQALKGQEFAPSHQQVYAPLRADGDKPRAHLTVVRQTPTQHFKNQFPALHWEHELGLAFTKNRMNYTNKFLLIPESGDYFIYSQVTFRGMTSECSEIRQAGRPNKPDSITVVITKVTDSYPEPTQLLMGTKSVCEVGSNWFQPIYLGAMFSLQEGDKLMVNVSDISLVDYTKEDKTFFGAFLL
B1: the miR-155 expression entry (FIG. 13B) is listed as “upregulation”. Also, under setting [1], the “miR-155 3p” value is on record as “upregulation” and the “miR-155 5p” value is “upregulation”. Besides, the “IL22 mRNA” value (cells treated with TL1A (TL1A+IL12+IL18)) is “increased”. In addition, under setting [2], the INFG secretion entry is “increase” and the “levels of INFG mRNA” value is listed as “increase”.
